From paper PMC7179120

Key:
Experiment in all cases: other fluorescence titration; microplate-based binding assay (HI-FI) with Alexa-488-labelled Sod1 and Ccs; 20 mM Tris pH 7.5, 150 mM NaCl, 1 mM TCEP; plates imaged on a Typhoon FLA 9500; quadruplicate; apparent dissociation constants
[1] = target: human Sod1 A4V/C146S, metal-free, disulfide reduced, labelled with Alexa-488 at C57 (human)
[2] = target: human Sod1 G85R/C146S, metal-free, disulfide reduced, labelled with Alexa-488 at C57 (human)
[3] = target: human Sod1 G93A/C146S, metal-free, disulfide reduced, labelled with Alexa-488 at C57 (human)
[4] = target: human Sod1 H80R/C146S, metal-free, disulfide reduced, labelled with Alexa-488 at C57 (human)

Kd [1]: 42.1 nM | Kd [2]: 35.5 nM | Kd [3]: 33.4 nM | Kd [4]: 67.6 nM
Substance: human copper chaperone for Sod1 (Ccs) (natural protein)
